Source: patent US20190338048A1
“And” between values parts separate entries of the source, which are not always exact repeats. Identical values can stand only once. Like-named read-outs stand apart in the source and are kept apart here.

Columns and labels:
[1] = biological target: CR8071 lambda light chain K129T_V133D (L1 of designs 3102 and 3109, system C); assay: SMCA LC-MS
[2] = biological target: CR8071 lambda light chain K129T_V133D (L1 of designs 3102 and 3109, system C); assay: SMCA LC-MS; remark: listed apart in the source
[3] = biological target: CR8071 lambda light chain K129T_V133D (L1 of designs 3102 and 3109, system C); assay: SMCA LC-MS; remark: listed apart in the source
[4] = biological target: Design 2994 L1: CR8071 lambda light chain E124Q_T131K; assay: SMCA, LC-MS
[5] = biological target: Design 2994 L1: CR8071 lambda light chain E124Q_T131K; assay: SMCA: H1, L1, H2, L2 co-expressed in CHO-3E7, protein A, LC-MS
[6] = biological target: Design 2994 L2: SGN-CD19a kappa light chain Q124E_V133D; assay: SMCA, LC-MS
[7] = biological target: Design 2994 L2: SGN-CD19a kappa light chain Q124E_V133D; assay: SMCA: H1, L1, H2, L2 co-expressed in CHO-3E7, protein A, LC-MS
[8] = biological target: Design 3947 L2: SGN-CD19a kappa light chain S131K_S176K; assay: SMCA: H1, L1, H2, L2 co-expressed, protein A, LC-MS
[9] = biological target: Design 3947 L2: SGN-CD19a kappa light chain S131K_S176K; assay: as above; remark: listed apart in the source
[10] = biological target: Design 3947 L2: SGN-CD19a kappa light chain S131K_S176K; assay: as above; remark: listed apart in the source
[11] = biological target: Design 3951 L2: SGN-CD19a kappa light chain S121K_S131K_S176K; assay: as above
[12] = biological target: Design 3951 L2: SGN-CD19a kappa light chain S121K_S131K_S176K; assay: as above; remark: listed apart in the source
[13] = biological target: Design 3951 L2: SGN-CD19a kappa light chain S121K_S131K_S176K; assay: as above; remark: listed apart in the source
[14] = biological target: Design 3954 L2: SGN-CD19a kappa light chain S121K_S176E_T178E; assay: as above
[15] = biological target: Design 3954 L2: SGN-CD19a kappa light chain S121K_S176E_T178E; assay: as above; remark: listed apart in the source
[16] = biological target: Design 3954 L2: SGN-CD19a kappa light chain S121K_S176E_T178E; assay: as above; remark: listed apart in the source
[17] = biological target: Design 3997 L1: CR8071 lambda light chain S122D_E124Q_T131R; assay: SMCA, LC-MS
[18] = biological target: Design 3997 L1: CR8071 lambda light chain S122D_E124Q_T131R; assay: SMCA: H1, L1, H2, L2 co-expressed in CHO-3E7, protein A, LC-MS
[19] = biological target: Design 3997 L2: SGN-CD19a kappa light chain S121K_V133I_S176D_T178E; assay: SMCA, LC-MS
[20] = biological target: Design 3997 L2: SGN-CD19a kappa light chain S121K_V133I_S176D_T178E; assay: SMCA: H1, L1, H2, L2 co-expressed in CHO-3E7, protein A, LC-MS
[21] = biological target: Design 4008 L2: SGN-CD19a kappa light chain Q124R_L135W_T178R; assay: SMCA, LC-MS
[22] = biological target: Design 4010 L2: SGN-CD19a kappa light chain S131R_V133G_L135W_S176R; assay: SMCA, LC-MS
[23] = biological target: Design 4040 L1: CR8071 lambda light chain K129T_S180E; assay: SMCA, LC-MS
[24] = biological target: Design 4040 L1: CR8071 lambda light chain K129T_S180E; assay: SMCA: H1, L1, H2, L2 co-expressed in CHO-3E7, protein A, LC-MS
[25] = biological target: Design 4040 L2: SGN-CD19a kappa light chain P44F_Q124K_T178R; assay: SMCA, LC-MS
[26] = biological target: Design 4040 L2: SGN-CD19a kappa light chain P44F_Q124K_T178R; assay: SMCA: H1, L1, H2, L2 co-expressed in CHO-3E7, protein A, LC-MS
[27] = biological target: Design 4040 L2: SGN-CD19a kappa light chain P44F_Q124K_T178R; assay: SMCA, LC-MS; remark: listed apart in the source
[28] = biological target: Design 4320 L1: CR8071 lambda light chain T116F_K129T_V133D_S176F; assay: SMCA, LC-MS
[29] = biological target: Design 4320 L1: CR8071 lambda light chain T116F_K129T_V133D_S176F; assay: SMCA: H1, L1, H2, L2 co-expressed in CHO-3E7, protein A, LC-MS
[30] = biological target: Design 4320 L2: SGN-CD19a kappa light chain Q124K_L135A_T178R; assay: SMCA, LC-MS
[31] = biological target: Designs 4008 and 4010 L1: CR8071 lambda light chain K129T_V133D; assay: SMCA, LC-MS
[32] = biological target: Designs 4008 and 4010 L1: CR8071 lambda light chain K129T_V133D; assay: SMCA: H1, L1, H2, L2 co-expressed in CHO-3E7, protein A, LC-MS
[33] = biological target: Pertuzumab kappa light chain V133G_S176D (L2), N-terminal HA tag; assay: LCCA, SPR of light chain tags
[34] = biological target: CAT-2200 lambda light chain S176K_Y178K (L1), N-terminal FLAG tag; assay: LCCA, SPR of light chain tags
[35] = biological target: CAT-2200 lambda light chain S176K_Y178L (L1), N-terminal FLAG tag; assay: LCCA, SPR of light chain tags
[36] = biological target: CAT-2200 lambda light chain S176K_Y178R (L1), N-terminal FLAG tag; assay: LCCA, SPR of light chain tags
[37] = biological target: Pertuzumab kappa light chain V133G_S176D (L2), N-terminal HA tag; assay: LCCA, SPR of light chain tags; remark: listed apart in the source
[38] = biological target: CAT-2200 lambda light chain S176K_Y178R (L1), N-terminal FLAG tag; assay: LCCA, SPR of light chain tags; remark: listed apart in the source
[39] = biological target: Pertuzumab kappa light chain V133G_S176D_T178D (L2), N-terminal HA tag; assay: LCCA, SPR of light chain tags
[40] = biological target: Pertuzumab kappa light chain V133G_S176D (L2), N-terminal HA tag; assay: LCCA, SPR of light chain tags; remark: listed apart in the source
[41] = biological target: Pertuzumab wild-type kappa light chain with N-terminal FLAG tag; assay: SMCA: H1, H2, L1, L2 co-expressed in CHO-3E7
[42] = biological target: SGN-CD19a kappa light chain Q124K_V133A_T178R (L2 of design 3109, systems B and C); assay: SMCA LC-MS
[43] = biological target: SGN-CD19a kappa light chain Q124K_V133A_T178R (L2 of design 3109, systems B and C); assay: SMCA LC-MS; remark: listed apart in the source
[44] = biological target: SGN-CD19a kappa light chain Q124K_V133A_T178R (L2 of design 3109, systems B and C); assay: SMCA LC-MS; remark: listed apart in the source

Q: Which Change in % H1L1 Pairing with respect to wild type [1] does the source give for “CR8071 heavy chain L143K (H1 of designs 3102 and 3109, system C)” here?
A: Its Change in % H1L1 Pairing with respect to wild type is 15.9%.

Q: And the % H1L1 Pairing [2]?
A: Its % H1L1 Pairing is 84%.

Q: What about the % H1L1 Pairing [3] of the same substance?
A: The % H1L1 Pairing was 88.7%.

Q: And the Change in % H1L1 Pairing with respect to wild type [3]?
A: Its Change in % H1L1 Pairing with respect to wild type is 6.4%.

Q: Which Change in % H1L1 Pairing with respect to wild type [4] does the source give for “Design 2994 H1: CR8071 heavy chain L143E_K145T_Q179E” here?
A: The Change in % H1L1 Pairing with respect to wild type was -22.1%.

Q: What about the % H1L1 Pairing [5] of the same substance?
A: Its % H1L1 Pairing is 26.3%.

Q: Which Change in % H2L2 Pairing with respect to wild type [6] does the source give for “Design 2994 H2: SGN-CD19a heavy chain L143K” here?
A: Its Change in % H2L2 Pairing with respect to wild type is 45% and 20.1%.

Q: And the % H2L2 Pairing [7]?
A: The % H2L2 Pairing was 99.2% and 99.7%.

Q: How did the Change in % H2L2 Pairing with respect to wild type [8] turn out when “Design 3947 H2: SGN-CD19a heavy chain K145T_S186E” was run?
A: The Change in % H2L2 Pairing with respect to wild type was 16.1%.

Q: And the % H2L2 Pairing [9]?
A: Its % H2L2 Pairing is 70.3%.

Q: And the % H2L2 Pairing [10]?
A: Its % H2L2 Pairing is 94.5%.

Q: What about the Change in % H2L2 Pairing with respect to wild type [10] of the same substance?
A: The Change in % H2L2 Pairing with respect to wild type was 23.2%.

Q: Which results are given for “Design 3951 H2: SGN-CD19a heavy chain K145T_S186E_K228D”?
A: Change in % H2L2 Pairing with respect to wild type [11]: 23.3%; % H2L2 Pairing [12]: 77.5%; % H2L2 Pairing [13]: 97.1%; Change in % H2L2 Pairing with respect to wild type [13]: 25.8%

Q: Which Change in % H2L2 Pairing with respect to wild type [14] does the source give for “Design 3954 H2: SGN-CD19a heavy chain S188K_K228D” here?
A: The Change in % H2L2 Pairing with respect to wild type was 7.6%.

Q: What about the % H2L2 Pairing [15] of the same substance?
A: Its % H2L2 Pairing is 61.8%.

Q: What about the % H2L2 Pairing [16] of the same substance?
A: The % H2L2 Pairing was 98.7%.

Q: And the Change in % H2L2 Pairing with respect to wild type [16]?
A: The Change in % H2L2 Pairing with respect to wild type was 19.1%.

Q: For “Design 3997 H1: CR8071 heavy chain A125R_L143E_K145T_Q179E”, which Change in % H1L1 Pairing with respect to wild type [17] is on record?
A: Its Change in % H1L1 Pairing with respect to wild type is 27.9%.

Q: And the % H1L1 Pairing [18]?
A: The % H1L1 Pairing was 96%.

Q: Which Change in % H2L2 Pairing with respect to wild type [19] does the source give for “Design 3997 H2: SGN-CD19a heavy chain S188K_K228D” here?
A: Its Change in % H2L2 Pairing with respect to wild type is 28.6%.

Q: What about the % H2L2 Pairing [20] of the same substance?
A: Its % H2L2 Pairing is 99.9%.

Q: “Design 4008 H2: SGN-CD19a heavy chain L143E_K145T_Q179E” was tested. Which Change in % H2L2 Pairing with respect to wild type [21] did it give?
A: Its Change in % H2L2 Pairing with respect to wild type is 33.3% and 38.4%.

Q: For “Design 4010 H2: SGN-CD19a heavy chain L124E_K145T_Q179E”, which Change in % H2L2 Pairing with respect to wild type [22] is on record?
A: The Change in % H2L2 Pairing with respect to wild type was 33.9% and 38.7%.

Q: With “Design 4040 H1: CR8071 heavy chain S186R” as the substance, how does the Change in % H1L1 Pairing with respect to wild type [23] read?
A: The Change in % H1L1 Pairing with respect to wild type was 30.6%.

Q: What about the % H1L1 Pairing [24] of the same substance?
A: The % H1L1 Pairing was 98.7%.

Q: For “Design 4040 H2: SGN-CD19a heavy chain L45P_L143E_K145T_Q179E”, which Change in % H2L2 Pairing with respect to wild type [25] is on record?
A: Its Change in % H2L2 Pairing with respect to wild type is 27.3%.

Q: What about the % H2L2 Pairing [26] of the same substance?
A: The % H2L2 Pairing was 75.8% and 98.6%.

Q: What about the Change in % H2L2 Pairing with respect to wild type [27] of the same substance?
A: Its Change in % H2L2 Pairing with respect to wild type is 21.6%.

Q: What does the source list for “Design 4320 H1: CR8071 heavy chain L143K_F174G”?
A: Change in % H1L1 Pairing with respect to wild type [28]: 14.3%; % H1L1 Pairing [29]: 96.6%

Q: For “Design 4320 H2: SGN-CD19a heavy chain L143E_K145T_Q179E_V190F”, which Change in % H2L2 Pairing with respect to wild type [30] is on record?
A: The Change in % H2L2 Pairing with respect to wild type was 17.9% and 21.5%.

Q: What does the source list for “Designs 4008 and 4010 H1: CR8071 heavy chain A139W_L143K”?
A: Change in % H1L1 Pairing with respect to wild type [31]: 17.3% and 17%; % H1L1 Pairing [32]: 99.6% and 99.3%

Q: Which results are given for “Pertuzumab Fab heavy chain L124R (H2), ABD2-His6 tagged”?
A: H2L2:H2L1 normalized median ratio [33]: 84%; H2L2:H2L1 normalized median scalar value ln(r1/f1) [33]: 1.63; H2L2:H2L1 normalized median ratio [34]: 16%; H2L2:H2L1 normalized median ratio [35]: 26%; H2L2:H2L1 normalized median ratio [36]: 15%; H2L2:H2L1 normalized median ratio [37]: 74%; H2L2:H2L1 normalized median scalar value ln(r1/f1) [37]: 1.06; H2L2:H2L1 normalized median ratio [38]: 39%; H2L2:H2L1 normalized median ratio [39]: 61%; H2L2:H2L1 normalized median scalar value ln(r1/f1) [39]: 0.43; H2L2:H2L1 normalized median ratio [40]: 85%; H2L2:H2L1 normalized median scalar value ln(r1/f1) [40]: 1.75

Q: Which % H2L2 Pairing (over all H2 species) [41] does the source give for “Pertuzumab wild-type full-length IgG1 heavy chain (heterodimeric Fc) (from UniProt P0DOX5 2-448)” here?
A: The % H2L2 Pairing (over all H2 species) was 79.9%.

Q: Which results are given for “SGN-CD19a heavy chain L124W_L143E_K145T_Q179E (H2 of design 3109, systems B and C)”?
A: % H2L2 Pairing [42]: 99.6%; Change in % H2L2 Pairing with respect to wild type [43]: 28.3%; % H2L2 Pairing [44]: 97.1%; Change in % H2L2 Pairing with respect to wild type [44]: 42.9%
